# Target: GFP-IQGAP1 ∆GRD (1004–1237 aa deleted) (UniProt P46940 1-1657, 1004–1237 aa deleted)
# Assay: co-IP
binder,measurement,value
"R-ras (natural protein, mouse (endogenous in NIH-3T3 and MEFs), UniProt P10833 1-218, looked up) MSSGAASGTGRGRPRGGGPGPRDPPPGETHKLVVVGGGGVGKSALTIQFIQSYFVSDYDPTIEDSYTKICTVDGIPARLDILDTAGQEEFGAMREQYMRAGNGFLLVFAINDRQSFNEVGKLFTQILRVKDRDDFPIVLVGNKADLENQRQVLRSEASSFSASHHMTYFEASAKLRLNVDEAFEQLVRAVRKYQEQELPPSPPSAPRKKDGGCPCVLL","fold less association with R-ras than IQGAP1, IQGAP1 ∆IQ or IQGAP1 ∆WW",5 fold
